Data reported in article PMC2890523, “Identification of archaeal proteins that affect the exosome function in vitro”.

Columns and labels:
[1] = target: PaRrp4-exosome (Pyrococcus abyssi) (UniProt Q9V120)
[2] = target: PaCsl4-exosome (Pyrococcus abyssi)
[3] = target: RNase PH ring (PaRrp41-PaRrp42 complex) (Pyrococcus abyssi)
[4] = target: PaRrp4-exosome (Pyrococcus abyssi) (UniProt Q9V120); remark: listed apart in the source
[5] = target: PaCsl4-exosome (Pyrococcus abyssi); remark: listed apart in the source
[6] = target: T1, PaRrp41;PaRrp42 (Pyrococcus abyssi;Pyrococcus abyssi, UniProt Q9V119;Q9V118 1-249;1-274, |); experiment: EMSA; no phosphate added; PaRrp4-exosome binds 3-fold more efficiently; some RNA degradation; 1 pmol RNA in 20 ul; 20 mM Tris-HCl pH 8.0, 20 mM KCl, 2 mM MgCl2, 1 mM DTT, 100 ug/ml BSA, 0.8 U RNasin (or conditions of earlier work, ref 21), 37 C, 30 min; settings: protein: recombinant;recombinant; tags: pET29a vector;pAE vector; chain copies: 3;3; label: 5'-32P; single strand
T1 sequence 1: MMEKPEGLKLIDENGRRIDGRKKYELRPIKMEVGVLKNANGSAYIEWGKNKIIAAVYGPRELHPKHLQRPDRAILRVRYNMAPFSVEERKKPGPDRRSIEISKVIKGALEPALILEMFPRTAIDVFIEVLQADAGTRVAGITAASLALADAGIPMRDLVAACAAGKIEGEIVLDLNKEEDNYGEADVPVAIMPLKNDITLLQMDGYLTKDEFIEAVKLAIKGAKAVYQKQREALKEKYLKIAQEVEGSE
T1 sequence 2: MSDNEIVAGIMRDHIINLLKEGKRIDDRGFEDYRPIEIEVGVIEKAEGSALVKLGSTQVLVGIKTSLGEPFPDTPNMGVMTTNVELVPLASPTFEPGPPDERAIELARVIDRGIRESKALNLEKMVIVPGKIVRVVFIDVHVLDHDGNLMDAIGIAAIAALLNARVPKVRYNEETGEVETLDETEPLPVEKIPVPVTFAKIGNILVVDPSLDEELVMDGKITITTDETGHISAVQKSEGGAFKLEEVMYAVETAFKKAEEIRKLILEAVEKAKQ

[7] = target: T2, PaSBDS (Pyrococcus abyssi, UniProt Q9V121 1-236); experiment: EMSA; 200 pmol; smear, low stability complex; 1 pmol RNA in 20 ul; 20 mM Tris-HCl pH 8.0, 20 mM KCl, 2 mM MgCl2, 1 mM DTT, 100 ug/ml BSA, 0.8 U RNasin (or conditions of earlier work, ref 21), 37 C, 30 min; settings: protein: recombinant; tags: pET-28a vector, Ni-NTA purified (His tag); label: 5'-32P; single strand
[8] = target: T3, PaRrp41;PaRrp42;PaRrp4 (Pyrococcus abyssi;Pyrococcus …, UniProt Q9V119;Q9V118;Q9V120 1-249;1-274;1-265, ||); experiment: EMSA; no phosphate added; 9-fold vs PaCsl4-exosome; 1 pmol RNA in 20 ul; 20 mM Tris-HCl pH 8.0, 20 mM KCl, 2 mM MgCl2, 1 mM DTT, 100 ug/ml BSA, 0.8 U RNasin (or conditions of earlier work, ref 21), 37 C, 30 min; settings: protein: recombinant;recombinant;recombinant; tags: pET29a vector;pAE vector;; chain copies: 3;3;3; label: 5'-32P; single strand
T3 sequence 1: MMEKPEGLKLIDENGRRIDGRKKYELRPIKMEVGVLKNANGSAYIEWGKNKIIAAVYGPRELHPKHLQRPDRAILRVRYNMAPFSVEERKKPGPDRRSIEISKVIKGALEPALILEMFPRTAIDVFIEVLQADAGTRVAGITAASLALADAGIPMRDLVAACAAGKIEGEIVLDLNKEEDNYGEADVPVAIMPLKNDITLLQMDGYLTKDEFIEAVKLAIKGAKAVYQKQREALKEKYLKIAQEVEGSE
T3 sequence 2: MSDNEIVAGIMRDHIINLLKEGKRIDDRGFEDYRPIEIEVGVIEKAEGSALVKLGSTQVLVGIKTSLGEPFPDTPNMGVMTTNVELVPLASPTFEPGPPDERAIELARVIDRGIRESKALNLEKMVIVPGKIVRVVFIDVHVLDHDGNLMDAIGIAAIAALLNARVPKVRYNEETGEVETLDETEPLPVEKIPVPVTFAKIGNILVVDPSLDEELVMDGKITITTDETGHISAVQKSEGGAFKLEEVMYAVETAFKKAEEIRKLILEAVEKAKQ
T3 sequence 3: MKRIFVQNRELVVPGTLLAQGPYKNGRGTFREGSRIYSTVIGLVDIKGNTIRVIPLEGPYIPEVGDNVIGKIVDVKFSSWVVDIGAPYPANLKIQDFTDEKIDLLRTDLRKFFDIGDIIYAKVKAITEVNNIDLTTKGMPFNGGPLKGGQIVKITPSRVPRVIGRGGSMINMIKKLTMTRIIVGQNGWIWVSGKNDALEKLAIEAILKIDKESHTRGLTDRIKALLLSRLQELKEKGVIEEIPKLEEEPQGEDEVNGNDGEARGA

[9] = target: T4, PaRrp41;PaRrp42;PaCsl4 (Pyrococcus abyssi;Pyrococcus …, UniProt Q9V119;Q9V118;Q9V2M2 1-249;1-274;1-199, ||); experiment: EMSA; no phosphate added; 1 pmol RNA in 20 ul; 20 mM Tris-HCl pH 8.0, 20 mM KCl, 2 mM MgCl2, 1 mM DTT, 100 ug/ml BSA, 0.8 U RNasin (or conditions of earlier work, ref 21), 37 C, 30 min; settings: protein: recombinant;recombinant;recombinant; tags: pET29a vector;pAE vector;pET28a vector; chain copies: 3;3;3; label: 5'-32P; single strand
T4 sequence 1: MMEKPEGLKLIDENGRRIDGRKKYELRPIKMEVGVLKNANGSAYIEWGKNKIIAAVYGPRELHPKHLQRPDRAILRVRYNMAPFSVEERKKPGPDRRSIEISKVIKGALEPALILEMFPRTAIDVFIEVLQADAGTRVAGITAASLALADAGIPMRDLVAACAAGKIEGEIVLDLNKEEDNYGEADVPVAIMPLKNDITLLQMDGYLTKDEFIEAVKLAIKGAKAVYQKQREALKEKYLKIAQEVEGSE
T4 sequence 2: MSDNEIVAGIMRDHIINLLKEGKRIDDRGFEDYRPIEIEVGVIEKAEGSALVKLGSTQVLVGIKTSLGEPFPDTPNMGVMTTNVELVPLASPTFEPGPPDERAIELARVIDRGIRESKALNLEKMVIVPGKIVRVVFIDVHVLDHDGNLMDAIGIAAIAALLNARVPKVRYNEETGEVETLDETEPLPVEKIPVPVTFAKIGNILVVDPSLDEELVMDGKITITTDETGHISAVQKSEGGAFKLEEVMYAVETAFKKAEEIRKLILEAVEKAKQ
T4 sequence 3: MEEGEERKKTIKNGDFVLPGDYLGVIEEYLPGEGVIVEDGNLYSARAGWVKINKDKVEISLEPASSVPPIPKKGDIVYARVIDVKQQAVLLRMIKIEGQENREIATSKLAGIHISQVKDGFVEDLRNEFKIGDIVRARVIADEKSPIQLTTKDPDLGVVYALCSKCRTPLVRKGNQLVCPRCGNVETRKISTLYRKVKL

[10] = target: T1, PaRrp41;PaRrp42; experiment: EMSA; 10 mM NaH2PO4, 65 C, 15 min; less efficient than holo-exosomes; 1 pmol RNA in 20 ul; 20 mM Tris-HCl pH 8.0, 20 mM KCl, 2 mM MgCl2, 1 mM DTT, 100 ug/ml BSA, 0.8 U RNasin (or conditions of earlier work, ref 21), 37 C, 30 min; settings: protein: recombinant;recombinant; tags: pET29a vector;pAE vector; chain copies: 3;3; label: 5'-32P; can form intra- and inter-strand base pairs of low stability
[11] = target: T2, PaSBDS; experiment: EMSA; 50-400 pmol; 1 pmol RNA in 20 ul; 20 mM Tris-HCl pH 8.0, 20 mM KCl, 2 mM MgCl2, 1 mM DTT, 100 ug/ml BSA, 0.8 U RNasin (or conditions of earlier work, ref 21), 37 C, 30 min; settings: protein: recombinant, tags: pET-28a vector, Ni-NTA purified (His tag), label: 5'-32P
[12] = target: T4, PaRrp41;PaRrp42;PaCsl4; experiment: EMSA; 10 mM NaH2PO4, 65 C, 15 min; 1 pmol RNA in 20 ul; 20 mM Tris-HCl pH 8.0, 20 mM KCl, 2 mM MgCl2, 1 mM DTT, 100 ug/ml BSA, 0.8 U RNasin (or conditions of earlier work, ref 21), 37 C, 30 min; settings: protein: recombinant;recombinant;recombinant; tags: pET29a vector;pAE vector;pET28a vector; chain copies: 3;3;3; label: 5'-32P; can form intra- and inter-strand base pairs of low stability
[13] = target: T3, PaRrp41;PaRrp42;PaRrp4; experiment: as above; settings: protein: recombinant;recombinant;recombinant; tags: pET29a vector;pAE vector;; chain copies: 3;3;3; label: 5'-32P; can form intra- and inter-strand base pairs of low stability

Molecule PaNip7 (natural protein) has an inhibition of the RNase activity on 14-mer poly-rA (1, 5 or 10 pmol complex, 65°C, 10 mM NaH2PO4) by 100 pmol PaNip7 [1] of 3.8 fold, an inhibition of the RNase activity on 14-mer poly-rA (1, 5 or 10 pmol complex, 65°C, 10 mM NaH2PO4) by 100 pmol PaNip7 [2] of 6.1 fold and a decrease in poly-rA binding by the exosome complex (EMSA, 1-20 pmol complex) in the presence of 100 pmol PaNip7 [3] of 3 fold. For the same molecule, the decrease in poly-rA binding by the exosome complex (EMSA, 1-20 pmol complex) in the presence of 100 pmol PaNip7 [4] was 40 fold and the decrease in poly-rA binding by the exosome complex (EMSA, 1-20 pmol complex) in the presence of 100 pmol PaNip7 [5] was 20 fold.

For AAAAAAAAAAAAAA (ssRNA) [poly-rA 14-mer], the binding result [6] was “binds”, the binding result [7] was “binds” and the binding signal [8] was 3 fold vs RNase PH ring. For the same molecule, the binding signal [9] was 9 fold less efficient than PaRrp4-exosome.

UUAUUAUUUAUUUAUUAUUUA (ssRNA) [poly-rAU 21-mer]: binds [10]; binds ([11]; can form intra- and inter-strand base pairs of low stability); binds [12]. UUAUUAUUUAUUUAUUAUUUA (ssRNA) [poly-rAU 21-mer]: binds [13].

CCCCCCCCCCCCC (ssRNA) [poly-rC 13-mer]: no binding ([11]; single strand).
